The text below walks through data of paper PMC7072198, “An Epitope on EGFR Loading Catastrophic Internalization Serve as a Novel Oncotarget for Hepatocellular Carcinoma Therapy” (Cancers, 2020).

For this test, the target named is T1, EGFR extracellular domain (ECD), wild type (human, UniProt P00533 25-645).
T1 construct: Epidermal growth factor receptor, human, extracellular domain; The Biacore legend and methods say only 'recombinant human EGFR' / 'EGFR protein'; also called EGFR ECD; EGFR ectodomain
Description: ITC; MicroCal VP-ITC; nineteen 3 μL aliquots of 400 μM rLZ-8 injected into 20 μM EGFR ectodomain; single site binding model. Conditions: both partners purified.

B1: recombinant Lingzhi-8 (rLZ-8), wild type (natural protein, Ganoderma lucidum, UniProt P14945 1-111, looked up)
chain: MSDTALIFRLAWDVKKLSFDYTPNWGRGNPNNFIDTVTFPKVLTDKAYTYRVAVSGRNLGVKPSYAVESDGSQKVNFLEYNSGYGIADTNTIQVFVVDPDTNNDFIIAQWN
notes: Lingzhi-8 (LZ-8) from Ganoderma lucidum, codon-optimised synthetic gene; Fluorescently labelled (red/green) in the cell experiments; also called rLZ-8^wt; source: Pichia pastoris X33 (pGAPZα A vector), culture supernatant, purified
Usually stoichiometry N stands for the number of molecules, sites or subunits per partner or assembly. For B1, the “stoichiometry N” value worked out at 2 rLZ-8 per EGFR ECD.
